Results taken from patent US20240101667A1, “METHODS FOR IDENTIFYING LILRB-BLOCKING ANTIBODIES” (THE BOARD OF REGENTS OF THE UNIVERSITY OF TEXAS SYSTEM, priority 2020, published 2024).

Tests used:
[1] = system: MLL-AF9 AML cells; assay: CFU assay of mouse MLL-AF9 AML cells; assay type: cell-based
From the text: FIGS. 7A-N. Blocking anti-LILRB3 antibody prevents monocytic AML development. (FIG. 7A) Epitope binning of 30 high-affinity IgGs. (FIG. 7B) CFU assay of mouse MLL-AF9 AML cells in the presence of above IgGs (n=3 independent experiments). (FIG. 7C) Binding affinities of the two IgGs from bin #3. (FIG. 7D) Upper: Schematic of treatment. Lower: Percentages of GFP^+ MLL-AF9 mouse AIL cells in peripheral blood (PB), bone marrow (BM), spleen (SPL), and liver (LV) of mice transplanted with AML cells expressing B3-FL or B3delICD and injected with IgG or anti-LILRB3 #1 N297A (n=3 independent mice). (FIG. 7E) Overall survival of mice transplanted with indicated AML cells as above. (FIG. 7F) CFU assay of MLL-AF9 mouse AML cells expressing B3-FL or B3delICD in the presence of IgG or anti-LILRB3 #1 N297A (n=3 independent experiments) (FIG. 7G) Upper: Schematic of treatment. Recipient mice were injected with mouse IgG or anti-mCD8 to deplete CD8 T cells. Lower: Percentages of GFP^+ MLL-AF9 mouse AML cells in peripheral blood (PB), bone marrow (BM), spleen (SPL), and liver (LV) of mice transplanted with AML cells expressing B3-FL or B3delICD and injected with IgG or anti-LILRB3 #1 LALAPG (n=4 mice). (FIG. 7H) Survival of mice as in panel h (n=4 independent mice). (FIG. 7I) Upper: Schematic of treatment. Lower: Whole-body images of NSG mice transplanted with luciferase-expressing THP-1 cells and treated with IgG or anti-LILRB3 #1 N297A (#1NA). (FIG. 7J) Overall survival of the mice shown in panel h (n=3 independent mice). (FIG. 7K) Upper: Schematic of treatment. Lower: Whole-body images of NSG mice transplanted with luciferase-expressing Molm13 cells, injected with activated T cells, and treated with IgG or #1NA. (FIG. 7L) Luciferase signaling as a function of time in mice treated as described in panel k. (FIG. 7M) Overall survival of mice treated as described in panel k (n=3 independent mice). (FIG. 7N) Analyses of T cells in peripheral blood of mice treated as described in panel 1 at 22 days after Molm13 AML cell transplantation. Upper: Flow cytometry analyses. Lower: Plot of T cell percentages (n=3 independent mice). The data are presented as mean±s.e.m, and p values were calculated by two-tailed t-test except for FIG. 7E, FIG. 7H, FIG. 7J and FIG. 7M by log-rank test.
FIGS. S6A-J. Development of anti-LILRB3 blocking antibodies for suppressing AML development. (FIG. S6a) Upper: Flow chart of strategy for development of fully humanized antibodies against LILRB3. Lower: The identified antibodies were tested in the LILRB3 chimeric receptor reporter cell assay. (FIG. S6b) ELISA results for LILRB3 binders. (FIG. S6c) EC50 values of the anti-LILRB3 antibodies based on ELISA. (FIG. S6d) Affinities of antibodies #32, #33, #67, and #45 to LILRB3 as determined by Octet. (FIG. S6e) Cross-reactivity of the anti-LILRB3 antibodies with LILRAs evaluated with LILRA binding analyses. (FIG. S6f) Cross-reactivity of the anti-LILRB3 antibodies with other LILRBs evaluated with LILRB binding analyses. (FIG. S6g) Interaction with TRAF2 contributes to the effect of LILRB3 on AML development. […] (FIG. S6j) NF-κB signaling target gene expression (measured by qPCR) in THP-1 cells from BM of xenografted NSG mice treated with anti-LILRB3 #1NA or IgG (n=3 individual samples). […]

[2] = Myeloid LysM-Cre driven LILRB3-transgenic C57BL/6 mice, hematopoiesis; assay type: in vivo, mouse
Description: FIGS. S7A-C. […] (FIG. S7a) Schematic of generation of myeloid-specific LILRB3 transgenic mice. (FIGS. S7b-c) LILRB3 is expressed on myeloid cells in peripheral blood (PB), spleen (SPL) and bone marrow (BM) of LysM-Cre driven LILRB3 transgenic mice, which were treated by anti-LILRB3 #1 antibody (n=2 mice) or IgG (n=3 mice). Shown are representative flow cytometry plots (FIG. S7b) and result summary (FIG. S7c).
LILRB3 transgenic mice. LILRB3 cDNA was constructed into pR26 CAG AsiSI/MluI. Then the plasmid was purified with high concentration in the absence of endotoxin. Cas9 RNA, gRNA targeting mouse Rosa26 locus and the LILRB3 plasmid co-injected into mouse oocytes at the transgenic core facility of UTSW. The LILRB3 positive mice were identified by LILRB3 specific primers and crossbred with LysMcre mice (JAX, 004781). The LILRB3^+LysMcre^+ mice were analyzed with co-expression of LILRB3 and Mac-1 or Gr-1 in peripheral blood, spleen and bone marrow.

B1: anti-LILRB3 #1 N297A: IgG #1 with Fc glycosylation N297A mutation, defective Fc-mediated effector functions (antibody, V domains shown)
VH: EVQLVESGGGVVQPGRSLRLSCAASGFTFSSYGMHWVRQAPGKGLEWVAFIRYDGSNKYYADSVKGRFTISRDNSKNTLYLQMNSLRAEDTAVYYCAKAGFSGWYYYGMDVWGQGTMVTVSS
VL: DIVMTQSPSSLSASVGDRLTITCRASQSISTYLNWYQQKPGKAPKLLIYGASSLQSGVPSRFSGSGSGTDFTLTISSLQPEDFATYFCQQSYGLPLTFGGGTKVDIK
CFU formation of AML cells expressing mutant LILRB3 that cannot interact with TRAF2 ([1]; AAA mutant (QEE509-511AAA)): did not decrease CFU formation | CFU formation by B3-FL AML cells ([1]; versus IgG): decreased CFU formation | normal hematopoiesis and leukocytosis ([2]; LILRB3 transgenic mice): did not affect normal hematopoiesis and leukocytosis | toxicity ([2]; suggested from the transgenic mice): low toxicity
